{"source": "paper PMC12442378", "about": "“SmsB-SmsC machinery in Thermococcus kodakarensis functions as an archaeal scaffold mediating Fe-S cluster assembly” (Applied and Environmental Microbiology, 2025)", "binders": {"B1": {"name": "Tk-CSD (cysteine desulfurase of T. kodakarensis, TK1990 protein) (enzyme, Thermococcus kodakarensis, UniProt Q5JIJ0 1-399, looked up)", "chain": "MKIPDDIRKDIPLTSEVIYFDNTATSLTPKPVIEAMDEYYLKYRANVHRGVHRLSQIATHKYEESRKVVADFINAKFEEIVFTKNTSESLNLVALGLEHIFEKGDKIVTTPYEHHSDLLPWQRLAKKKGLRLEFIEGDLEGNLDLADAEKKIKGAKLVAVQHVSNALGVIHEVEELGKMAKEEGAIFVVDAAQSAGHMEVDVKKLYADFLGFSGHKGPMGPTGIGVLYINSEFFDVFEPPLIGGGTIEDVDLDSYKLAEPPERFEAGTPNIGGAIGLAAGIRYIERIGIEKIEKQEHKLVKRTTEGLDELEVPWYGPRNLKKHAGVVSFNVPPLHPHDVAAILDEHNIMVRSGHHCALPAMKKLGVEGTVRASFHVYNSVEEVETFLSVMENLIRGLRG", "notes": "cysteine desulfurase (SufS homolog) of Thermococcus kodakarensis, locus TK1990; coding region amplified from genomic DNA of strain KU216; theoretical monomer mass 44.4 kDa; Cloned NheI-EcoRI into pET-21a(+); Homodimer by gel filtration; source: E. coli BL21-CodonPlus(DE3)-RIL (pET1990), purified (heat treatment, anion exchange, gel filtration)"}, "B2": {"name": "Tk-SmsC (TK0731 protein), recombinant (enzyme, Thermococcus kodakarensis, UniProt Q5JG66 1-246, looked up)", "chain": "MLKVENLHVSVEDKEILRGVDLEVNPGEFHVIMGPNGSGKSTLALTIAGHPKYRVTDGKILFEGEDITELGPDERAKRGILLAFQVPPEVEGVKVIEFLQQVLVELKGMDPAEAYDLVVEKAKELWFKEEDLHRYVNVGFSGGERKRLELLQALLIEPKLLILDEPDSGVDVDSLSIISRKIEELHQRGTAILLITHYGRILGHLDREKLTVHVMKDGRIVKTGSGELVDQIDREGFARIFEEVGA", "notes": "SmsC (SufC homolog, ABC-type ATPase) of Thermococcus kodakarensis, locus TK0731; coding region amplified from genomic DNA of strain KU216; theoretical mass 27.5 kDa; Cloned NdeI-BamHI into pET-21a(+); Monomer by gel filtration; source: E. coli BL21-CodonPlus(DE3)-RIL (pET0731), purified (heat treatment, anion exchange, gel filtration)"}, "B3": {"name": "Tk-SmsB (TK0730 protein) with a 6x His tag at its N-terminus (natural protein, Thermococcus kodakarensis, UniProt Q5JG67 1-446, looked up)", "chain": "MTETITMADAKAIIENQIEELARRNKEPEWMTKIRYKALEAFERAPHKDPVISEEQLLHFIAKPEVKGLPDHIESLDDLPPEMKALLDRLGISEVEQKYIAGLAVQTDTGVIYNQFLQDWAKKGLIVLPTEEAVRKYPDIVKQHFLKLFRADESKLTAYHTAVWNGGIFLYVKEGLKVPFPLHLFFLIQESALAQAPHIIIIAERNTEFHLIEGCTAPILLKHSLHLDMTEAYFHEGAKAQLTVLQNWPEYVHTRPMTRAKVGRGARFINTTVTLGSGKSNIGDPHYWVEEGGHVELNGIILGQKDFYVDLGGRMFLQGPGASGINASKAVIMDESTVVTRGIIEADAPKTKGHISCDALLMSDKAVMETYPGLISRVDDAELSHEAAIGKIREEELFYLMSRGLDEEKATQLIVKGFLDPMLKDIPMEFLVEIRKIIELAVSGGM", "notes": "SmsB (SufB homolog) of Thermococcus kodakarensis, locus TK0730; coding region amplified from genomic DNA of strain KU216; theoretical monomer mass 50.8 kDa including the His tag; Homodimer by gel filtration.); not shown: His6, N-terminal, kept"}}, "key": {"[1]": {"target": "the molecule itself", "experiment": "SEC; gel filtration of Tk-CSD alone and of its mixtures with Tk-SmsB, Tk-SmsC or both, 30 uM of each protein; fractions analysed by SDS-PAGE"}, "[2]": {"target": "B3", "experiment": "SEC; Superdex 200 Increase 10/300 GL; 50 mM HEPES pH 7.5, 0.15 M NaCl; Tk-SmsB 40 uM alone, Tk-SmsC 72 uM alone, or mixture of 40 uM each; peak fraction analysed by SDS-PAGE and band densitometry", "details": "both partners purified"}, "[3]": {"target": "B3", "experiment": "cell-based or functional assay"}, "[4]": {"target": "the molecule itself", "experiment": "SEC; Superdex 200 Increase 10/300 GL; 50 mM HEPES pH 7.5, 0.15 M NaCl; Tk-SmsB 40 uM alone, Tk-SmsC 72 uM alone, or mixture of 40 uM each; peak fraction analysed by SDS-PAGE and band densitometry"}}, "data": [{"binder": "B1", "values": [{"measurement": "stoichiometry N", "setting": "[1]", "value": 2}]}, {"binder": "B2", "values": [{"measurement": "density ratio of the Tk-SmsB band to the Tk-SmsC band (SDS-PAGE of peak Pm)", "setting": "[2]", "value": 1.13}, {"measurement": "stoichiometry N", "setting": "[2]", "value": "1 Tk-SmsC per Tk-SmsB (printed as 2:2)"}, {"measurement": "kcat/Km of ATP hydrolysis, Tk-SmsB2C2 (Tk-SmsC alone 4.4 × 10^2)", "setting": "[3]", "value": 4600, "unit": "M⁻¹ s⁻¹"}]}, {"binder": "B3", "values": [{"measurement": "stoichiometry N", "setting": "[4]", "value": 2}]}]}
